The source of these data is publication PMC3936717 (Nucleic Acids Research, 2013).

The series concerns the molecule itself. Kind of series: crystal structure.

B1: P2 Cox protein of bacteriophage P2 (natural protein, UniProt P07695 1-91, looked up)
chain: MSKQVTLMTDAIPYQEFAKLIGKSTGAVRRMIDKGKLPVIDMTDPQSASGRAGEYWVYLPAWNNGLKLAYESRPKEIRDGWLMWLGLGEPR
As to B1, the binding result is reported as “binds”.
